# Article PMC6563288
# Biological target: VP1(289A)-Flag (enterovirus A71 (C4))
# Experiment: co-IP
substance,measurement,value
Vimentin (VIM) (from UniProt P08670 1-466) (natural protein),"fold VIM pulled down, against VP1(289T)-Flag",1.6 fold
